# Test results: the supplement of paper PMC10567573
# B1: SETD8 (parent)
# chain: KKAQGKTQQNRKLTDFYPVRRSSR
# B2: RSPH3 (parent)
# chain: MTVKPAKAASLARNLAKRRRTYLG
# Variants of: B1
# Assay: protein stability index of a GFP-peptide fusion (GPS, HEK-293T) (PSI 1-6); higher = more stable
# Settings: c terminus: a fixed tail appended
# 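Also: lentivirally expressed fusions sorted by FACS into six bins by GFP to DsRed ratio, PSI derived from sequencing read proportions per bin multiplied by bin number.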
row,Variant,protein stability index
1,KKALGKTQQNRKLTDFYPVRRSSR,3.69
2,KKAEGKTQQNRKLTDFYPVRRSSR,1.68
3,KKAGGKTQQNRKLTDFYPVRRSSR,2.22
4,KKARGKTQQNRKLTDFYPVRRSSR,1.99
5,KKAVGKTQQNRKLTDFYPVRRSSR,3.42
6,KKASGKTQQNRKLTDFYPVRRSSR,1.13
7,KKATGKTQQNRKLTDFYPVRRSSR,1.87
8,KKAYGKTQQNRKLTDFYPVRRSSR,2.18
9,KKAHGKTQQNRKLTDFYPVRRSSR,2.73
10,KKAIGKTQQNRKLTDFYPVRRSSR,3.18
11,KKACGKTQQNRKLTDFYPVRRSSR,1.64
12,KKAKGKTQQNRKLTDFYPVRRSSR,3.35
13,KKADGKTQQNRKLTDFYPVRRSSR,4.69
14,KKNQGKTQQNRKLTDFYPVRRSSR,3.12
15,KKTQGKTQQNRKLTDFYPVRRSSR,2.43
16,KKFQGKTQQNRKLTDFYPVRRSSR,2.93
17,KKIQGKTQQNRKLTDFYPVRRSSR,2.84
18,KKWQGKTQQNRKLTDFYPVRRSSR,2.33
19,KKSQGKTQQNRKLTDFYPVRRSSR,3.47
20,KKVQGKTQQNRKLTDFYPVRRSSR,3.41
21,KKEQGKTQQNRKLTDFYPVRRSSR,3.01
22,KKDQGKTQQNRKLTDFYPVRRSSR,3.79
23,KKQQGKTQQNRKLTDFYPVRRSSR,2.4
24,KKYQGKTQQNRKLTDFYPVRRSSR,2.73

row,Variant,protein stability index
1,KKLQGKTQQNRKLTDFYPVRRSSR,3.96
2,KKRQGKTQQNRKLTDFYPVRRSSR,3.17
3,KKKQGKTQQNRKLTDFYPVRRSSR,2.72
4,KKGQGKTQQNRKLTDFYPVRRSSR,3.27
5,KKAQGKTQQTRKLTDFYPVRRSSR,2.17
6,KKAQGKTQQLRKLTDFYPVRRSSR,2.39
7,KKAQGKTQQMRKLTDFYPVRRSSR,2.39
8,KKAQGKTQQARKLTDFYPVRRSSR,1.64
9,KKAQGKTQQDRKLTDFYPVRRSSR,4.38
10,KKAQGKTQQYRKLTDFYPVRRSSR,3.04
11,KKAQGKTQQCRKLTDFYPVRRSSR,3.63
12,KKAQGKTQQPRKLTDFYPVRRSSR,2.77
13,KKAQGKTQQRRKLTDFYPVRRSSR,2.74
14,KKAQGKTQQSRKLTDFYPVRRSSR,2.35
15,KKAQGKTQQGRKLTDFYPVRRSSR,1.42
16,KKAQGKTQQHRKLTDFYPVRRSSR,3.49
17,KKAQGKTQQIRKLTDFYPVRRSSR,3.4
18,KKAQGKTQQERKLTDFYPVRRSSR,2.67
19,TKAQGKTQQNRKLTDFYPVRRSSR,2.62
20,HKAQGKTQQNRKLTDFYPVRRSSR,1.54
21,CKAQGKTQQNRKLTDFYPVRRSSR,1.22
22,VKAQGKTQQNRKLTDFYPVRRSSR,2.73
23,QKAQGKTQQNRKLTDFYPVRRSSR,1.99
24,GKAQGKTQQNRKLTDFYPVRRSSR,1.81

row,Variant,protein stability index
1,WKAQGKTQQNRKLTDFYPVRRSSR,2.09
2,NKAQGKTQQNRKLTDFYPVRRSSR,2.13
3,IKAQGKTQQNRKLTDFYPVRRSSR,4.17
4,LKAQGKTQQNRKLTDFYPVRRSSR,4.04
5,SKAQGKTQQNRKLTDFYPVRRSSR,2.88
6,FKAQGKTQQNRKLTDFYPVRRSSR,2.11
7,EKAQGKTQQNRKLTDFYPVRRSSR,1.97
8,RKAQGKTQQNRKLTDFYPVRRSSR,2.24
9,MKAQGKTQQNRKLTDFYPVRRSSR,2.54
10,KKAQGKSQQNRKLTDFYPVRRSSR,2.26
11,KKAQGKEQQNRKLTDFYPVRRSSR,2.9
12,KKAQGKMQQNRKLTDFYPVRRSSR,2.41
13,KKAQGKHQQNRKLTDFYPVRRSSR,2.88
14,KKAQGKNQQNRKLTDFYPVRRSSR,3.33
15,KKAQGKQQQNRKLTDFYPVRRSSR,2.66
16,KKAQGKFQQNRKLTDFYPVRRSSR,1.95
17,KKAQGKWQQNRKLTDFYPVRRSSR,2.88
18,KKAQGKRQQNRKLTDFYPVRRSSR,3.38
19,KKAQGKDQQNRKLTDFYPVRRSSR,3.32
20,KKAQGKLQQNRKLTDFYPVRRSSR,3.08
21,KKAQGTTQQNRKLTDFYPVRRSSR,3.58
22,KKAQGATQQNRKLTDFYPVRRSSR,3.18
23,KKAQGHTQQNRKLTDFYPVRRSSR,1.57
24,KKAQGMTQQNRKLTDFYPVRRSSR,1.62

row,Variant,protein stability index
1,KKAQGNTQQNRKLTDFYPVRRSSR,2.82
2,KKAQGCTQQNRKLTDFYPVRRSSR,3.03
3,KKAQGFTQQNRKLTDFYPVRRSSR,2.16
4,KKAQGRTQQNRKLTDFYPVRRSSR,3.1
5,KKAQGPTQQNRKLTDFYPVRRSSR,2.06
6,KKAQGDTQQNRKLTDFYPVRRSSR,2.54
7,KKAQGITQQNRKLTDFYPVRRSSR,2.09
8,KKAQGWTQQNRKLTDFYPVRRSSR,2.33
9,KKAQGVTQQNRKLTDFYPVRRSSR,2.25
10,KKAQGGTQQNRKLTDFYPVRRSSR,3.09
11,KKAQGSTQQNRKLTDFYPVRRSSR,1.73
12,KRAQGKTQQNRKLTDFYPVRRSSR,2.03
13,KPAQGKTQQNRKLTDFYPVRRSSR,2.13
14,KSAQGKTQQNRKLTDFYPVRRSSR,2.12
15,KTAQGKTQQNRKLTDFYPVRRSSR,3.1
16,KLAQGKTQQNRKLTDFYPVRRSSR,1.57
17,KMAQGKTQQNRKLTDFYPVRRSSR,2.54
18,KFAQGKTQQNRKLTDFYPVRRSSR,1.97
19,KNAQGKTQQNRKLTDFYPVRRSSR,2.56
20,KWAQGKTQQNRKLTDFYPVRRSSR,3.07
21,KHAQGKTQQNRKLTDFYPVRRSSR,3.35
22,KYAQGKTQQNRKLTDFYPVRRSSR,2.43
23,KGAQGKTQQNRKLTDFYPVRRSSR,3.04
24,KIAQGKTQQNRKLTDFYPVRRSSR,3.63

row,Variant,protein stability index
1,KDAQGKTQQNRKLTDFYPVRRSSR,2.65
2,KQAQGKTQQNRKLTDFYPVRRSSR,1.83
3,KKAQGKTQQNRHLTDFYPVRRSSR,1.53
4,KKAQGKTQQNRLLTDFYPVRRSSR,3.41
5,KKAQGKTQQNRVLTDFYPVRRSSR,2.32
6,KKAQGKTQQNRSLTDFYPVRRSSR,2.64
7,KKAQGKTQQNRMLTDFYPVRRSSR,2.55
8,KKAQGKTQQNRGLTDFYPVRRSSR,2.76
9,KKAQGKTQQNRDLTDFYPVRRSSR,2.98
10,KKAQGKTQQNRFLTDFYPVRRSSR,1.93
11,KKAQGKTQQNRTLTDFYPVRRSSR,2.4
12,KKAQGKTQQNRRLTDFYPVRRSSR,1.86
13,KKAQGKTQQNRNLTDFYPVRRSSR,2.81
14,KKAQGKTQQNRPLTDFYPVRRSSR,2.97
15,KKAQGKTQQNRELTDFYPVRRSSR,3.35
16,KKAQGKTVQNRKLTDFYPVRRSSR,3.2
17,KKAQGKTRQNRKLTDFYPVRRSSR,2.39
18,KKAQGKTDQNRKLTDFYPVRRSSR,3.23
19,KKAQGKTLQNRKLTDFYPVRRSSR,2.41
20,KKAQGKTPQNRKLTDFYPVRRSSR,2.94
21,KKAQGKTSQNRKLTDFYPVRRSSR,2.69
22,KKAQGKTMQNRKLTDFYPVRRSSR,1.89
23,KKAQGKTFQNRKLTDFYPVRRSSR,3.67
24,KKAQGKTGQNRKLTDFYPVRRSSR,2.28

row,Variant,protein stability index
1,KKAQGKTNQNRKLTDFYPVRRSSR,2.89
2,KKAQGKTHQNRKLTDFYPVRRSSR,2.59
3,KKAQGKTWQNRKLTDFYPVRRSSR,3.29
4,KKAQGKTYQNRKLTDFYPVRRSSR,2.02
5,KKAQGKTCQNRKLTDFYPVRRSSR,3.34
6,KKAQGKTAQNRKLTDFYPVRRSSR,2.45
7,KKAQGKTEQNRKLTDFYPVRRSSR,1.69
8,KKAQGKTQLNRKLTDFYPVRRSSR,2.65
9,KKAQGKTQDNRKLTDFYPVRRSSR,2.83
10,KKAQGKTQSNRKLTDFYPVRRSSR,2.36
11,KKAQGKTQPNRKLTDFYPVRRSSR,1.78
12,KKAQGKTQGNRKLTDFYPVRRSSR,1.89
13,KKAQGKTQKNRKLTDFYPVRRSSR,3.66
14,KKAQGKTQYNRKLTDFYPVRRSSR,2.92
15,KKAQGKTQRNRKLTDFYPVRRSSR,2.67
16,KKAQGKTQCNRKLTDFYPVRRSSR,3.93
17,KKAQGKTQANRKLTDFYPVRRSSR,3.26
18,KKAQGKTQENRKLTDFYPVRRSSR,3.12
19,KKAQGKTQHNRKLTDFYPVRRSSR,4.29
20,KKAQGKTQMNRKLTDFYPVRRSSR,2.25
21,KKAQGKTQQNDKLTDFYPVRRSSR,3.45
22,KKAQGKTQQNPKLTDFYPVRRSSR,2.61
23,KKAQGKTQQNHKLTDFYPVRRSSR,3.68
24,KKAQGKTQQNWKLTDFYPVRRSSR,2.76

row,Variant,protein stability index
1,KKAQGKTQQNQKLTDFYPVRRSSR,2.71
2,KKAQGKTQQNLKLTDFYPVRRSSR,2.43
3,KKAQGKTQQNGKLTDFYPVRRSSR,1.5
4,KKAQGKTQQNFKLTDFYPVRRSSR,2.91
5,KKAQGKTQQNTKLTDFYPVRRSSR,2.19
6,KKAQGKTQQNVKLTDFYPVRRSSR,1.86
7,KKAQGKTQQNEKLTDFYPVRRSSR,2.15
8,KKAQGKTQQNYKLTDFYPVRRSSR,2.94
9,KKAQGKTQQNAKLTDFYPVRRSSR,1.6
10,KKAQGKTQQNSKLTDFYPVRRSSR,2.85
11,KKAQGKTQQNNKLTDFYPVRRSSR,2.86
12,KKAQGKTQQNIKLTDFYPVRRSSR,2.45
13,KKAQNKTQQNRKLTDFYPVRRSSR,2.53
14,KKAQHKTQQNRKLTDFYPVRRSSR,1.83
15,KKAQEKTQQNRKLTDFYPVRRSSR,2.89
16,KKAQIKTQQNRKLTDFYPVRRSSR,1.68
17,KKAQRKTQQNRKLTDFYPVRRSSR,1.44
18,KKAQSKTQQNRKLTDFYPVRRSSR,2.62
19,KKAQLKTQQNRKLTDFYPVRRSSR,2.77
20,KKAQAKTQQNRKLTDFYPVRRSSR,1.87
21,KKAQVKTQQNRKLTDFYPVRRSSR,2.65
22,KKAQDKTQQNRKLTDFYPVRRSSR,2.89
23,KKAQYKTQQNRKLTDFYPVRRSSR,2.92

# Variants of: B2
# Assay: as above
# Settings: c terminus: a fixed tail appended
row,Variant,protein stability index
1,MTVKPAKAASLARNLAKRRRTYYG,3
2,MTVKPAKAASLARNLAKRRRTYWG,3.34
3,MTVKPAKAASLARNLAKRRRTYLD,2.04
4,MTVKPAKAASLARNLAKRRRTYLQ,2.94
5,MTVKPAKAASLARNLAKRRRTYLS,3.15
6,MTVKPAKAASLARNLAKRRRTYLA,3.33
7,MTVKPAKAASLARNLAKRRRTYLT,3.42
8,MTVKPAKAASLARNLAKRRRTYLW,1.63
9,MTVKPAKAASLARNLAKRRRTYLY,2.42
10,MTVKPAKAASLARNLAKRRRTYLI,2.35
11,MTVKPAKAASLARNLAKRRRTYLP,3.63
12,MTVKPAKAASLARNLAKRRRTYLN,3.18
13,MTVKPAKAASLARNLAKRRRTYLE,3.54
14,MTVKPAKAASLARNLAKRRRTYLH,2.7
15,MTVKPAKAASLARNLAKRRRTYLV,2.17
16,MTVKPAKAASLARNLAKRRRTYLR,3.46
17,MTVKPAKAASLARNLAKRRRTYLL,2.3
18,MTVKPAKAASLARNLAKRRRTYLK,2.68
19,MTVKPAKAASLARNLAKRRRTYLC,2.64
20,MTVKPAKAASLARNLAKRRRTYLF,1.97
21,MTVKPAKAASLARNLAKRRRTYLM,2.38
